From the supplement of paper PMC7877785
± gives the uncertainty stated by the source.

Assay: self-splicing fitness, log relative to wild type (ln ratio); higher = more splicing; Tetrahymena group I intron in knt gene, E. coli kanamycin selection, DiMSum; sequences stand for … in CUCUCU…GGAGGGAAAAGUUAUCAGGCAUGCACCUGGUAGCUAGUCUUUAAACCAAUAGAUUGCAUCGGUUUAAAAGGCAAGACCGUCAAAUUGCGGGAAAGGGGUCAACAGCCGUUCAGUACCAAGUCUCAGGGGAAACUUUGAGAUGGCCUUGCAAAGGGUAUGGUAAUAAGCUGACGGACAUGGUCCUAACCACGCAGCCAAGUCCUAAGUCAACAGAUCUUCUGUUGAUAUGGAUGCAGUUCACAGACUAAAUGUCGGUCGGGGAAGAUGUAUUCUUCUCAUAAGAUAUAGUCGGACCUCUCCUUAAUGGGAGCUAGCGGAUGAAGUGAUGCAACACUGGAGCCGCUGGGAACUAAUUUGUAUGCGAAAGUAUAUUGAUUAGUUUUGGAGUACUCGUGGUCG
In short: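 A randomised library covering all eight P1ex-region intron nucleotides was built with the intron in the knt kanamycin-resistance gene on pET-22b(+) and held in E. coli BL21(DE3). Cells were grown overnight at 37°C or 30°C on LB agar, with or without 25 μg/mL kanamycin, plus 100 μg/mL carbenicillin, 50 μM IPTG and 0.2% rhamnose, and pooled colonies were amplicon-sequenced on an Illumina HiSeq 2500. DiMSum fitness is the error-weighted combination of wild-type-normalised replicate fold changes, kanamycin versus none.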

With UGGAAGCAAUAUUACGACAG the “self-splicing fitness (ln)” value (30 °C) was -0.462 ± 0.13 and the “self-splicing fitness (ln)” value (37 °C) was -0.603 ± 0.19.
In the case of GCUAAGCAAUAUUACGCCUC, the “self-splicing fitness (ln)” value (30 °C) is reported as -1.89 ± 0.16 and the “self-splicing fitness (ln)” value (37 °C) is reported as -0.286 ± 0.22.
For CAGAAGCAAUAUUACGUCAA, the “self-splicing fitness (ln)” value (30 °C) was -2.46 ± 0.27 and the “self-splicing fitness (ln)” value (37 °C) was -2.24 ± 0.26.
With UGGAAGCAAUAUUACGAGUA the “self-splicing fitness (ln)” value (30 °C) was -1.94 ± 0.22 and the “self-splicing fitness (ln)” value (37 °C) was -1.13 ± 0.17.
In the case of GCAAAGCAAUAUUACGCGAA, the “self-splicing fitness (ln)” value (30 °C) is reported as -1.55 ± 0.14 and the “self-splicing fitness (ln)” value (37 °C) is reported as -0.599 ± 0.17.
For GAGUAGCAAUAUUACGAAGU, the “self-splicing fitness (ln)” value (30 °C) was -2.93 ± 0.18 and the “self-splicing fitness (ln)” value (37 °C) was -2.1 ± 0.15.
For GCCCAGCAAUAUUACGAGCC, the “self-splicing fitness (ln)” value (30 °C) was -3.1 ± 0.24 and the “self-splicing fitness (ln)” value (37 °C) was -0.756 ± 0.15.
In the case of CUGGAGCAAUAUUACGCCGA, the “self-splicing fitness (ln)” value (30 °C) is reported as -1.18 ± 0.34.
For CUGGAGCAAUAUUACGCGCG, the “self-splicing fitness (ln)” value (30 °C) was -2.2 ± 0.14 and the “self-splicing fitness (ln)” value (37 °C) was -0.917 ± 0.13.
For AUCGAGCAAUAUUACGAGGC, the “self-splicing fitness (ln)” value (37 °C) was -1.13 ± 0.28.
With CGCAAGCAAUAUUACGUUAA the “self-splicing fitness (ln)” value (30 °C) was -2.49 ± 0.18 and the “self-splicing fitness (ln)” value (37 °C) was -2.62 ± 0.21.
With UAAAAGCAAUAUUACGCAAC the “self-splicing fitness (ln)” value (30 °C) was -4.54 ± 0.34 and the “self-splicing fitness (ln)” value (37 °C) was -2.13 ± 0.21.
With CUCCAGCAAUAUUACGGGUU the “self-splicing fitness (ln)” value (30 °C) was -3.83 ± 0.2 and the “self-splicing fitness (ln)” value (37 °C) was -2.91 ± 0.2.
In the case of CGCCAGCAAUAUUACGUUAC, the “self-splicing fitness (ln)” value (30 °C) is reported as -1.91 ± 0.22 and the “self-splicing fitness (ln)” value (37 °C) is reported as -3.49 ± 0.31.
With GAGUAGCAAUAUUACGUAAA the “self-splicing fitness (ln)” value (37 °C) was -0.672 ± 0.33.
In the case of ACCCAGCAAUAUUACGAAUU, the “self-splicing fitness (ln)” value (30 °C) is reported as -1.63 ± 0.075 and the “self-splicing fitness (ln)” value (37 °C) is reported as -0.951 ± 0.094.
In the case of UUUUAGCAAUAUUACGCCAA, the “self-splicing fitness (ln)” value (30 °C) is reported as -2.27 ± 0.35 and the “self-splicing fitness (ln)” value (37 °C) is reported as 0.0505 ± 0.22.
For GUUCAGCAAUAUUACGGGAU, the “self-splicing fitness (ln)” value (30 °C) was -2.24 ± 0.18 and the “self-splicing fitness (ln)” value (37 °C) was -1.58 ± 0.35.
In the case of UCCUAGCAAUAUUACGCAUG, the “self-splicing fitness (ln)” value (30 °C) is reported as -2.52 ± 0.28.
In the case of GUGCAGCAAUAUUACGCGCC, the “self-splicing fitness (ln)” value (30 °C) is reported as -3.58 ± 0.4 and the “self-splicing fitness (ln)” value (37 °C) is reported as -1.95 ± 0.33.
For AUCGAGCAAUAUUACGGCAA, the “self-splicing fitness (ln)” value (30 °C) was -2.19 ± 0.15 and the “self-splicing fitness (ln)” value (37 °C) was -2.06 ± 0.18.
For GUCAAGCAAUAUUACGGUCU, the “self-splicing fitness (ln)” value (30 °C) was -2.7 ± 0.084 and the “self-splicing fitness (ln)” value (37 °C) was -0.906 ± 0.075.
In the case of CUUUAGCAAUAUUACGCCGA, the “self-splicing fitness (ln)” value (30 °C) is reported as -2.8 ± 0.48 and the “self-splicing fitness (ln)” value (37 °C) is reported as -2.32 ± 0.39.
For GAUCAGCAAUAUUACGGGUC, the “self-splicing fitness (ln)” value (30 °C) was -3.38 ± 0.21 and the “self-splicing fitness (ln)” value (37 °C) was -3.05 ± 0.25.
In the case of UAGCAGCAAUAUUACGAGAU, the “self-splicing fitness (ln)” value (30 °C) is reported as -3.24 ± 0.2 and the “self-splicing fitness (ln)” value (37 °C) is reported as -3.18 ± 0.28.
In the case of GUAUAGCAAUAUUACGUCCG, the “self-splicing fitness (ln)” value (30 °C) is reported as -2.98 ± 0.18 and the “self-splicing fitness (ln)” value (37 °C) is reported as -1.21 ± 0.17.
For GGCUAGCAAUAUUACGUCGA, the “self-splicing fitness (ln)” value (30 °C) was -1.19 ± 0.071 and the “self-splicing fitness (ln)” value (37 °C) was -0.818 ± 0.093.
With CAGCAGCAAUAUUACGAGUU the “self-splicing fitness (ln)” value (30 °C) was -3.95 ± 0.2 and the “self-splicing fitness (ln)” value (37 °C) was -2.15 ± 0.13.
In the case of UGUUAGCAAUAUUACGGAAU, the “self-splicing fitness (ln)” value (30 °C) is reported as -0.534 ± 0.34 and the “self-splicing fitness (ln)” value (37 °C) is reported as -1.91 ± 0.38.
In the case of AACUAGCAAUAUUACGUCCU, the “self-splicing fitness (ln)” value (30 °C) is reported as -0.111 ± 0.092 and the “self-splicing fitness (ln)” value (37 °C) is reported as 1.04 ± 0.12.
With UUUGAGCAAUAUUACGUCAU the “self-splicing fitness (ln)” value (30 °C) was -3.88 ± 0.34 and the “self-splicing fitness (ln)” value (37 °C) was -1.64 ± 0.21.
In the case of AUUUAGCAAUAUUACGCUCC, the “self-splicing fitness (ln)” value (30 °C) is reported as -1.4 ± 0.47.
With ACCUAGCAAUAUUACGGCUG the “self-splicing fitness (ln)” value (30 °C) was -4.76 ± 0.36 and the “self-splicing fitness (ln)” value (37 °C) was -2.32 ± 0.18.
In the case of AUCGAGCAAUAUUACGCUAC, the “self-splicing fitness (ln)” value (37 °C) is reported as -1.06 ± 0.29.
With GUGUAGCAAUAUUACGCAUG the “self-splicing fitness (ln)” value (30 °C) was -2.88 ± 0.27 and the “self-splicing fitness (ln)” value (37 °C) was -2.67 ± 0.41.
With CCAAAGCAAUAUUACGUAAC the “self-splicing fitness (ln)” value (30 °C) was -4.73 ± 0.27 and the “self-splicing fitness (ln)” value (37 °C) was -2.72 ± 0.28.
For CAAUAGCAAUAUUACGAUAU, the “self-splicing fitness (ln)” value (30 °C) was -4.72 ± 0.34 and the “self-splicing fitness (ln)” value (37 °C) was -2.59 ± 0.22.
In the case of CGAUAGCAAUAUUACGCUCA, the “self-splicing fitness (ln)” value (30 °C) is reported as -0.478 ± 0.11 and the “self-splicing fitness (ln)” value (37 °C) is reported as 0.119 ± 0.15.
With GAUGAGCAAUAUUACGUCCC the “self-splicing fitness (ln)” value (30 °C) was -2.06 ± 0.43 and the “self-splicing fitness (ln)” value (37 °C) was -1.04 ± 0.44.
In the case of AAGUAGCAAUAUUACGCGAC, the “self-splicing fitness (ln)” value (30 °C) is reported as -3.11 ± 0.31 and the “self-splicing fitness (ln)” value (37 °C) is reported as -1.7 ± 0.36.
